± gives the standard deviation of the averaged measurements.
B1: library; a variant is named by its letters at N, in order (parent)
chain: GCUGUCACCGAGAAACUGUGAAGUAUAUCUUAAACCUGGGCACUUAAAAGAUAUAUGGAGUUAGUAGUGCAACCUGCUCGGUCUGAUGAGUCCNNNNNNGGACGAAACAGC
B2: library; a variant is named by its letters at N, in order (parent)
chain: GCUGUCACCGGUGCUUGGUACGUUAUAUUCAGCCGGUCUGAUGAGUCUNNNNNNAGACGAAACAGC

How the values were obtained:
[1] = variants of: B1; assay: FACS-Seq fitted mean relative fluorescence mCherry/BFP without ligand (log10 relative fluorescence); HEK293T; ligand: cyclic di-GMP (c-di-GMP-II aptamer); higher = higher reporter protein expression; settings: ligand present: no
Procedure: (§1)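 Hammerhead (sTRSV) ribozyme switch libraries with a ligand aptamer grafted on stem I and a randomized N4-6 loop II, cloned into the 3' UTR of mCherry and transiently transfected into HEK293T cells; RNA-Seq 72 h post transfection with ligand added 1 h before transfection; RNA read count / plasmid DNA read count normalized to the non-cleaving sTRSVctl (x100), log10; sequences with >100 DNA reads. FACS-Seq: lentiviral library sorted into 6 bins after 48 h ligand, log-normal fit mean of mCherry/BFP scaled to controls. Printed sequences are partial switch sequences.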

[2] = variants of: B1; assay: normalized RNA/DNA level without ligand (relative to sTRSVctl = 100) (log10 (% of sTRSVctl)); HEK293T; ligand: cyclic di-GMP (c-di-GMP-II aptamer); higher = less ribozyme self-cleavage, higher mRNA level; settings: reporter: mCherry (pCS4076), ligand present: no
Procedure: as §1

[3] = variants of: B1; assay: FACS-Seq fitted mean relative fluorescence mCherry/BFP with ligand (log10 relative fluorescence); HEK293T; ligand: cyclic di-GMP (c-di-GMP-II aptamer); ligand concentration (+) FACS-Seq: 1 mM; higher = higher reporter protein expression; settings: ligand present: yes
Procedure: as §1

[4] = variants of: B1; assay: normalized RNA/DNA level with ligand (relative to sTRSVctl = 100) (log10 (% of sTRSVctl)); HEK293T; ligand: cyclic di-GMP (c-di-GMP-II aptamer); ligand concentration (+) RNA-Seq: 1 mM; higher = less ribozyme self-cleavage, higher mRNA level; settings: reporter: mCherry (pCS4076), ligand present: yes
Procedure: as §1

[5] = variants of: B2; assay: normalized RNA/DNA level without ligand (relative to sTRSVctl = 100) (log10 (% of sTRSVctl)); HEK293T overexpressing SLC46A1; higher = less ribozyme self-cleavage, higher mRNA level; settings: without (6R,S)-folinic acid; ligand present: no
Method in brief: (§2)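 Library plasmids encoding reporter-linked ribozyme switches (mCherry, or eGFP for some folinic acid experiments) were transfected into HEK293T at 4 µg per 6-well well. Ligand, when used, was added 1 h before transfection. Total RNA was extracted with EDTA 72 h later, then reverse-transcribed, amplified, barcoded and sequenced. RNA level was RNA reads over DNA reads, divided by a spiked-in non-cleaving control (or the top 25 sequences), ×100, log10; only sequences with ≥100 DNA reads were kept.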

[6] = variants of: B2; assay: normalized RNA/DNA level with ligand (relative to sTRSVctl = 100) (log10 (% of sTRSVctl)); HEK293T overexpressing SLC46A1; ligand concentration (+) RNA-Seq: 6 mM; higher = less ribozyme self-cleavage, higher mRNA level; settings: with (6R,S)-folinic acid; ligand present: yes
Method in brief: as §2

Variant	FACS-Seq fitted mean (log10) [1]	normalized RNA/DNA level without ligand (log10) [2]	FACS-Seq fitted mean (log10) [3]	normalized RNA/DNA level with ligand (log10) [4]	normalized RNA/DNA level without ligand (log10) [5]	normalized RNA/DNA level with ligand (log10) [6]
AGGAUC	-0.0729 ± 0.071	1.63 ± 0.023	0.137 ± 0.019	1.78 ± 0.1		
CGGACG	-1.09 ± 0.056	1.77 ± 0.072	-1.17 ± 0.31	1.87 ± 0.11		
UGCGUU	-0.0716 ± 0.19	1.691 ± 0.0015	0.15 ± 0.093	1.9 ± 0.096		
UAAAGA	-0.0343 ± 0.1	1.6 ± 0.047	0.167 ± 0.024	1.73 ± 0.12		
UAGUUG	0.116 ± 0.21	1.7 ± 0.05	0.29 ± 0.039	1.81 ± 0.082		
GUAGAG	0.0274 ± 0.11	1.47 ± 0.073	0.252 ± 0.077	1.66 ± 0.12		
GACCUG	-0.44 ± 0.12	1.66 ± 0.022	-0.213 ± 0.13	1.81 ± 0.11		
AAAAGA	-0.494 ± 0.013	1.36 ± 0.073	-0.116 ± 0.009	1.56 ± 0.14		
AUUUCU					2.03 ± 0.025	2.034 ± 0.019
AUUUCA					2.036 ± 0.012	2.01 ± 0.026
AUUUCC					2.048 ± 0.0099	2.037 ± 0.01
AUUUCG					1.961 ± 0.016	2 ± 0.026
CUUGGU					2.01 ± 0.021	2.01 ± 0.029
AUUGAU					1.93 ± 0.0058	2.01 ± 0.036
AUUGAC					1.99 ± 0.016	1.97 ± 0.046
GUUUAU					1.99 ± 0.02	1.99 ± 0.031
GUUUAA					1.989 ± 0.0071	1.99 ± 0.025
GUUUAC					2.02 ± 0.028	2.016 ± 0.002
AUUGUU					1.988 ± 0.0071	1.998 ± 0.008
AUUGUA					1.941 ± 0.016	2 ± 0.02
AUUGUC					2.06 ± 0.038	2.05 ± 0.066
CUUUCA					1.992 ± 0.013	2.01 ± 0.077
CUUUCG					2.047 ± 0.0046	2.053 ± 0.0034
CUUUCC					2.02 ± 0.03	2 ± 0.021
CUUUCU					1.998 ± 0.005	1.99 ± 0.035
GUUGCA					2 ± 0.011	2.01 ± 0.038

Variant	FACS-Seq fitted mean (log10) [1]	normalized RNA/DNA level without ligand (log10) [2]	FACS-Seq fitted mean (log10) [3]	normalized RNA/DNA level with ligand (log10) [4]	normalized RNA/DNA level without ligand (log10) [5]	normalized RNA/DNA level with ligand (log10) [6]
GUUGCC					2.0274 ± 0.0015	1.998 ± 0.018
UUUUUU					2.017 ± 0.014	2.03 ± 0.032
UUUUUC					2.05 ± 0.026	2.01 ± 0.026
UUUUUA					2.002 ± 0.0053	2.007 ± 0.014
AUUUUU					1.989 ± 0.017	2.01 ± 0.029
UUUUGC					1.959 ± 0.0097	1.93 ± 0.055
UUUUGU					1.957 ± 0.014	2 ± 0.046
GUUCUC					2.112 ± 0.0075	2.076 ± 0.02
GUUCUU					2.0414 ± 0.0017	2.04 ± 0.028
GUUCUG					1.981 ± 0.015	1.987 ± 0.014
GUUGGC					1.914 ± 0.019	2.02 ± 0.036
GUUGGG					1.912 ± 0.013	2.042 ± 0.017
AUUUAG					1.949 ± 0.013	2.01 ± 0.026
AUUUAA					1.953 ± 0.013	1.99 ± 0.059
AUUCGG					1.952 ± 0.017	2.04 ± 0.026
AUUCGU					1.99 ± 0.0072	1.97 ± 0.057
CUUUAC					2.019 ± 0.0086	2.01 ± 0.062
CUUUAA					1.978 ± 0.0046	2 ± 0.026
CUUUAG					1.97 ± 0.024	1.9987 ± 0.00067
CUUUAU					1.9766 ± 0.0013	2 ± 0.048
AUUUGU					1.945 ± 0.002	2.02 ± 0.042
AUUUGC					2 ± 0.02	1.99 ± 0.026
AUUUGA					1.965 ± 0.0074	2 ± 0.053
CUUUGU					1.986 ± 0.008	1.99 ± 0.022
CUUUGG					2.023 ± 0.0097	1.994 ± 0.013
CUUUGA					2.024 ± 0.004	2.05 ± 0.036
